Reference: patent US9187525B2, “Methods of treating ophthalmic diseases using NPR-B agonists” (Shire Orphan Therapies GmbH, dated 2015)
Numbered stars: 1 amine (or outer) side, 2 acyl side, 3 side chain; on linkers, the order of the positions; unused ones are H or OH. Square brackets hold non-standard residues; d marks the D form. Ends that are not written are not given here. * marks the point of attachment. Pro(trans-4-NH2) = O=C([C@@H]1C[C@@H](N[*:3])CN1[*:1])[*:2]; Sni = (S)-nipecotic acid, O=C([C@H]1CCCN([*:1])C1)[*:2]; Egg = 2-Amino-3-piperidin-4-yl-propionic acid; Oic = O=C(O)[C@@H]1C[C@@H]2CCCC[C@@H]2N1; Fhy = Amino-piperidin-3-yl-acetic acid; Hyp = O=C(O)[C@@H]1C[C@@H](O)CN1; NMeL = CN[C@@H](CC(C)C)C(=O)O; AR‑201‑58 = not defined here; AR‑201‑59 = not defined here; AR‑201‑62 = not defined here; AR‑201‑69 = not defined here; Tle = CC(C)(C)[C@H](N)C(=O)O; Pip = O=C(O)[C@@H]1CCCCN1; Ac6c = NC1(C(=O)O)CCCCC1; Nle = CCCC[C@H](N)C(=O)O; Octanoyl = CCCCCCCC(=O)*; Orn = NCCC[C@H](N)C(=O)O; dDap = NC[C@@H](N)C(=O)O; Ac5c = NC1(C(=O)O)CCCC1; Api = NC1(C(=O)O)CCNCC1; Et2 = not defined here; Hexanoyl = CCCCCC(=O)*; Nbt = 4-butyl-thiazole; Oct = not defined here; Sbt = 5-butyl-thiazole; Occ = octanoic acid

Target: T1, natriuretic peptide receptor-B (human)
T1 chain: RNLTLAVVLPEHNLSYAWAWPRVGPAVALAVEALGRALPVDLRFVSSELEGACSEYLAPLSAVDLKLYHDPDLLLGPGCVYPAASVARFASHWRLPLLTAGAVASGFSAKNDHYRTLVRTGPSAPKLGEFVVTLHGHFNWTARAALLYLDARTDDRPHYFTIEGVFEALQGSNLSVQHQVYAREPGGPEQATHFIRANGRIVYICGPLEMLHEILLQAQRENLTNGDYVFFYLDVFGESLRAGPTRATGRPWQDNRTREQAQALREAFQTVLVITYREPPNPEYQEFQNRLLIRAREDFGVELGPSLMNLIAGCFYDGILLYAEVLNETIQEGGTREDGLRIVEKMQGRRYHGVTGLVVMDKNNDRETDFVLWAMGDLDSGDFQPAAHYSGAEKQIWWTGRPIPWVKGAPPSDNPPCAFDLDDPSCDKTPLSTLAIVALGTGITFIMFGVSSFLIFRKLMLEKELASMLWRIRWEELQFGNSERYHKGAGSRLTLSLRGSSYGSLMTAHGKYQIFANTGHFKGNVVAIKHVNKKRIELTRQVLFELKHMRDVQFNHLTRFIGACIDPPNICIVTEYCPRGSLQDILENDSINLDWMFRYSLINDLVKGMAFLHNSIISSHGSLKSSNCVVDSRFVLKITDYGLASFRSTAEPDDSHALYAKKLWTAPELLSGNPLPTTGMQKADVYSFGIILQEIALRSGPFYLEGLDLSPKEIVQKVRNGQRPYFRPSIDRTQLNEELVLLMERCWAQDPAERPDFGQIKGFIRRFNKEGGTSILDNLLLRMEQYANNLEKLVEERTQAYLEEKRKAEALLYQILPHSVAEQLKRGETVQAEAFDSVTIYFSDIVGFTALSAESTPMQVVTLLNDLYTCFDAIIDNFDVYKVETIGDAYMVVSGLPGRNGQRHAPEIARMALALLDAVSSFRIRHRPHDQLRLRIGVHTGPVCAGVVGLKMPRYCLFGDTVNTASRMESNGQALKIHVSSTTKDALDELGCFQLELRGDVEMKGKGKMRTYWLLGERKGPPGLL
Experiment: cell-based or functional assay

Row | Binder | EC50 group, cGMP in GTM-3 cells [µM]
1 | [AR‑201‑58]F[dR]L[Hyp][NMeL]DRI-NH2 (reading uncertain; also: printed as (AR-201-58)-Phe-arg-Leu-Hyp-Nml-Asp-Arg-Ile-NH2) [JAL-1339] | ≤ 15
2 | Octanoyl-[dA]F[dL]L[Hyp][Pip]DRI-NH2 [JAL-1366] | ≤ 5
3 | XXFGLKLDRI (HELM PEPTIDE1{[CCCCCC(=O)[*:2]].[O=C(c1cccc(CN[*:1])c1)[*:2]].F.G.L.K.L.D.R.I.[am]}$$$$V2.0; SMILES CCCCCC(=O)NCc1cccc(C(=O)N[C@@H](Cc2ccccc2)C(=O)NCC(=O)N[C@@H](CC(C)C)C(=O)N[C@@H](CCCCN)C(=O)N[C@@H](CC(C)C)C(=O)N[C@@H](CC(=O)O)C(=O)N[C@@H](CCCNC(=N)N)C(=O)N[C@H](C(N)=O)[C@@H](C)CC)c1) [JAL-0647] | ≤ 15
4 | [Occ][Sni]F[Api]L[Pro(trans-4-NH2)][NMeL]DRI-NH2 [JAL-1351] | ≤ 1
5 | Octanoyl-[dA]F[dL]L[Hyp][NMeL]DR[Tle]-NH2 [JAL-1352] | ≤ 1
6 | [Occ][dA]F[dL]L[Hyp][NMeL]D[Orn]I-NH2 [JAL-1328] | ≤ 5
7 | Octanoyl-[Sni]F[dL]L[Pro(trans-4-NH2)](Et2)[NMeL]DRI-NH2 (reading uncertain; also: printed as Occ-Sni-Phe-leu-Leu-Tap(Et2)-Nml-Asp-Arg-Ile-NH2) [JAL-1348] | ≤ 5
8 | [AR‑201‑59]F[dR]L[Hyp][NMeL]DRI-NH2 (reading uncertain; also: printed as (AR-201-59)-Phe-arg-Leu-Hyp-Nml-Asp-Arg-Ile-NH2) [JAL-1340] | ≤ 15
9 | [AR‑201‑62]F[dR]L[Hyp][NMeL]DRI-NH2 (reading uncertain; also: printed as (AR-201-62)-Phe-arg-Leu-Hyp-Nml-Asp-Arg-Ile-NH2) [JAL-1341] | ≤ 5
10 | [Nbt][Sni]F[dR]L[Hyp][NMeL]DRI-NH2 [JAL-1344] | ≤ 5
11 | Octanoyl-[Sni]F[dL]L[Pro(trans-4-NH2)](Et)[NMeL]DRI-NH2 [JAL-1349] | ≤ 1
12 | [Occ][dA]F[dL]L[Hyp][NMeL]TRI-NH2 [JAL-1334] | ≤ 5
13 | [Occ][dA]F[dR]L[Hyp][NMeL]VRI-NH2 [JAL-1331] | ≤ 5
14 | Octanoyl-[dA]F[dR]L[Hyp][Pip]DRI-NH2 [JAL-1365] | ≤ 15
15 | Octanoyl-[dA]F[dDap](Me2)L[Pro(trans-4-NH2)][NMeL]DRI-NH2 [JAL-1347] | ≤ 5
16 | [Occ][dA]F[Fhy]L[Hyp][NMeL]DRI-NH2 [JAL-1336] | ≤ 1
17 | Hexanoyl-S[dP]FGLKLDRI-NH2 [JAL-0638] | ≤ 15
18 | [Occ][dA]F[Egg]L[Hyp][NMeL]DRI-NH2 [JAL-1337] | ≤ 5
19 | XXFGLKLDRI (HELM PEPTIDE1{[CCCCCC(=O)[*:2]].[O=C(c1ccc(CN[*:1])cc1)[*:2]].F.G.L.K.L.D.R.I.[am]}$$$$V2.0; SMILES CCCCCC(=O)NCc1ccc(C(=O)N[C@@H](Cc2ccccc2)C(=O)NCC(=O)N[C@@H](CC(C)C)C(=O)N[C@@H](CCCCN)C(=O)N[C@@H](CC(C)C)C(=O)N[C@@H](CC(=O)O)C(=O)N[C@@H](CCCNC(=N)N)C(=O)N[C@H](C(N)=O)[C@@H](C)CC)cc1) [JAL-0648] | ≤ 15

Row | Binder | EC50 group, cGMP in GTM-3 cells [µM]
20 | Octanoyl-[dA]F[dL]L[Hyp][NMeL]IRI-NH2 [JAL-1363] | ≤ 5
21 | [Sbt][Sni]F[dR]L[Hyp][NMeL]DRI-NH2 [JAL-1343] | ≤ 1
22 | [Occ][dA]F[dR]L[Hyp][NMeL]TRI-NH2 [JAL-1333] | ≤ 5
23 | [Occ][dA]F[Api]L[Hyp][NMeL]DRI-NH2 [JAL-1338] | ≤ 1
24 | Nbt-[dA]F[dR]L[Hyp][NMeL]DRI-NH2 [JAL-1346] | ≤ 15
25 | [Occ][dA]F[dL]L[Hyp][NMeL]DR[Ac5c]-NH2 [JAL-1335] | ≤ 5
26 | Octanoyl-[dA]F[Api]L[Pro(trans-4-NH2)][NMeL]DRI-NH2 [JAL-1350] | ≤ 1
27 | Octanoyl-[dA]F[dL]L[Hyp][NMeL]DR[Ac6c]-NH2 [JAL-1358] | ≤ 1
28 | Octanoyl-[dA]F[dR]L[Hyp][Oic]DRI-NH2 [JAL-1364] | ≤ 5
29 | Hexanoyl-G[dP]FGLKLDRI-NH2 [JAL-0636] | ≤ 15
30 | Octanoyl-[dA]F[dR]L[Hyp][NMeL]D[Nle]I-NH2 [JAL-1361] | ≤ 15
31 | Octanoyl-[dA]F[dL]L[Hyp][NMeL]D[Nle]I-NH2 [JAL-1360] | ≤ 15
32 | Octanoyl-[dA]F[dR]L[Hyp][NMeL]DR[Ac6c]-NH2 [JAL-1359] | ≤ 5
33 | [Sbt][dA]F[dR]L[Hyp][NMeL]DRI-NH2 [JAL-1345] | ≤ 15
34 | [Oct][Sni]F[dL]L[Pro(trans-4-NH2)][NMeL]DRI-NH2 (reading uncertain; also: printed as Oct-Sni-Phe-leu-Leu-Tap-Nml-Asp-Arg-Ile-NH2) [JAL-1326] | ≤ 1
35 | [Occ][dA]F[dR]L[Hyp][NMeL]D[Orn]I-NH2 [JAL-1327] | ≤ 5
36 | [AR‑201‑69]F[dR]L[Hyp][NMeL]DRI-NH2 (reading uncertain; also: printed as (AR-201-69)-Phe-arg-Leu-Hyp-Nml-Asp-Arg-Ile-NH2) [JAL-1342] | ≤ 5
37 | Octanoyl-[dA]F[dR]L[Hyp][NMeL]IRI-NH2 [JAL-1362] | ≤ 15
